Data on three molecules can be found in publication PMC8987015, “Studying Acetylation of Aconitase Isozymes by Genetic Code Expansion” (Frontiers in Chemistry, 2022).

For one data set, the target named is AcnB (Escherichia coli, UniProt P36683). To be noted: citrate 0.1 to 50 mM; enzyme reactivated with 1 mM (NH4)2Fe(SO4)2 and 5 mM DTT, 50 mM Tris pH 8.
A further data set deals with AcnA (Escherichia coli, UniProt P25516). To be noted: citrate 0.1 to 50 mM; enzyme reactivated with 1 mM (NH4)2Fe(SO4)2 and 5 mM DTT, 50 mM Tris pH 8.
Substrate in the data set “purified protein”: O=C(O)CC(O)(CC(=O)O)C(=O)O
As to the kind of experiment: purified protein. The following applies: citrate 0.1 to 50 mM, enzyme reactivated with 1 mM (NH4)2Fe(SO4)2 and 5 mM DTT, 50 mM Tris pH 8.

In general, Km refers to the substrate concentration at which the rate is half of its maximum. As to `O=C(O)CC(O)(CC(=O)O)C(=O)O` [citrate], the Km was 9.76 ± 0.67 mM at AcnB and 3.45 ± 0.23 mM at AcnA.

B1: AcnA (Escherichia coli K-12) (protein)
chain: SSTLREASKDTLQAKDKTYHYYSLPLAAKSLGDITRLPKSLKVLLENLLRWQDGNSVTEEDIHALAGWLKNAHADREIAYRPARVLMQDFTGVPAVVDLAAMREAVKRLGGDTAKVNPLSPVDLVIDHSVTVDRFGDDEAFEENVRLEMERNHERYVFLKWGKQAFSRFSVVPPGTGICHQVNLEYLGKAVWSELQDGEWIAYPDTLVGTDSHTTMINGLGVLGWGVGGIEAEAAMLGQPVSMLIPDVVGFKLTGKLREGITATDLVLTVTQMLRKHGVVGKFVEFYGDGLDSLPLADRATIANMSPEYGATCGFFPIDAVTLDYMRLSGRSEDQVELVEKYAKAQGMWRNPGDEPIFTSTLELDMNDVEASLAGPKRPQDRVALPDVPKAFAASNELEVNATHKDRQPVDYVMNGHQYQLPDGAVVIAAITSCTNTSNPSVLMAAGLLAKKAVTLGLKRQPWVKASLAPGSKVVSDYLAKAKLTPYLDELGFNLVGYGCTTCIGNSGPLPDPIETAIKKSDLTVGAVLSGNRNFEGRIHPLVKTNWLASPPLVVAYALAGNMNINLASEPIGHDRKGDPVYLKDIWPSAQEIARAVEQVSTEMFRKEYAEVFEGTAEWKGINVTRSDTYGWQEDSTYIRLSPFFDEMQATPAPVEDIHGARILAMLGDSVTTDHISPAGSIKPDSPAGRYLQGRGVERKDFNSYGSRRGNHEVMMRGTFANIRIRNEMVPGVEGGMTRHLPDSDVVSIYDAAMRYKQEQTPLAVIAGKEYGSGSSRDWAAKGPRLLGIRVVIAESFERIHRSNLIGMGILPLEFPQGVTRKTLGLTGEEKIDIGDLQNLQPGATVPVTLTRADGSQEVVPCRCRIDTATELTYYQNDGILHYVIRNMLK
A word on the kcat: it is the maximal rate divided by the concentration of active sites. In the case of B1, in “purified protein”, the Km was 1.64 ± 0.21 mM and the kcat amounted to 20.6 ± 1.62 s⁻¹.

B2: AcnB (Escherichia coli K-12) (protein)
chain: MLEEYRKHVAERAAEGIAPKPLDANQMAALVELLKNPPAGEEEFLLDLLTNRVPPGVDEAAYVKAGFLAAIAKGEAKSPLLTPEKAIELLGTMQGGYNIHPLIDALDDAKLAPIAAKALSHTLLMFDNFYDVEEKAKAGNEYAKQVMQSWADAEWFLNRPALAEKLTVTVFKVTGETNTDDLSPAPDAWSRPDIPLHALAMLKNAREGIEPDQPGVVGPIKQIEALQQKGFPLAYVGDVVGTGSSRKSATNSVLWFMGDDIPHVPNKRGGGLCLGGKIAPIFFNTMEDAGALPIEVDVSNLNMGDVIDVYPYKGEVRNHETGELLATFELKTDVLIDEVRAGGRIPLIIGRGLTTKAREALGLPHSDVFRQAKDVAESDRGFSLAQKMVGRACGVKGIRPGAYCEPKMTSVGSQDTTGPMTRDELKDLACLGFSADLVMQSFCHTAAYPKPVDVNTHHTLPDFIMNRGGVSLRPGDGVIHSWLNRMLLPDTVGTGGDSHTRFPIGISFPAGSGLVAFAAATGVMPLDMPESVLVRFKGKMQPGITLRDLVHAIPLYAIKQGLLTVEKKGKKNIFSGRILEIEGLPDLKVEQAFELTDASAERSAAGCTIKLNKEPIIEYLNSNIVLLKWMIAEGYGDRRTLERRIQGMEKWLANPELLEADADAEYAAVIDIDLADIKEPILCAPNDPDDARPLSAVQGEKIDEVFIGSCMTNIGHFRAAGKLLDAHKGQLPTRLWVAPPTRMDAAQLTEEGYYSVFGKSGARIEIPGCSLCMGNQARVADGATVVSTSTRNFPNRLGTGANVFLASAELAAVAALIGKLPTPEEYQTYVAQVDKTAVDTYRYLNFNQLSQYTEKADGVIFQTAV
As to B2, in “purified protein”, the Km was 9.34 ± 0.72 mM and the kcat was 63.5 ± 4.52 s⁻¹.
